# Test results: patent US20250326823A1
# Tests used:
# [1] = target: SARS-CoV-2 spike (S) protein, WA1 (SARS-CoV-2) (UniProt P0DTC2); test: cell-based or functional assay
# [2] = target: SARS-CoV-2 WA1 spike (S) protein (SARS-CoV-2) (UniProt P0DTC2); test: cell-based or functional assay
Substance,neutralization IC50 [1] [nM],neutralization IC80 [1] [nM],"IC50, pseudovirus neutralization [1] [nM]","IC80, pseudovirus neutralization [1] [nM]",pseudovirus neutralization IC50 [2] [µg/mL]
ADG20 (antibody),0.047,0.197,,,
AZD3152 (antibody),,,1.08,2.2,0.161
